# Molecular target: the molecule itself
# Test: SEC; analytic Superdex 200 10/300 GL; 1 mg/ml; 50 mM HEPES, 150 mM NaCl, 1 mM DTT, 1 mM EDTA, 5% glycerol, pH 8.0; 0.3 ml/min, 16°C; mass calculated from the elution volume
row,Protein,stoichiometry N
1,"2-aminomuconate deaminase (AmnE) from Pseudomonas sp. AP-3, wild type (enzyme, UniProt Q9KWS2 1-142, looked up, 2-aminomuconate deaminase AmnE, Pseudomonas sp; AP-3; protomer of 142 residues; Hexamer made of two trimers, by crystal structure, SEC and cross-linking; the database entry may name the gene amnD; After thrombin cleavage a few vector residues may remain at the N-terminus (surmised); also called wild-type AmnE; source: E. coli BL21 (DE3) pLysS, purified (Ni-NTA, Resource Q, Superdex 75); not …) MVSKADNSAKLVEGKAKPMGSFPHVKRAGDFLFVSGTSSRRPDNTFVGAEPDDTGRPRPNIELQTREVISNIRDILQSVGADLGDVVEVCSYLVNMNDFAAYNKVYAEFFDATGPARTTVAVHQLPHPQLVIEIKVVAYKPL",6
2,"AmnE R56A (enzyme, Pseudomonas sp. AP-3, UniProt Q9KWS2 1-142, looked up, 2-aminomuconate deaminase AmnE, Pseudomonas sp; AP-3, as m1 with R56A; The purification, including tag cleavage, is described once for the wild type and the mutants together; Trimer by SEC; also called single mutant of AmnE R56A; source: E. coli BL21 (DE3) pLysS, purified (Ni-NTA, Resource Q, Superdex 75); not shown: His6, N-terminal, cleaved) MVSKADNSAKLVEGKAKPMGSFPHVKRAGDFLFVSGTSSRRPDNTFVGAEPDDTGAPRPNIELQTREVISNIRDILQSVGADLGDVVEVCSYLVNMNDFAAYNKVYAEFFDATGPARTTVAVHQLPHPQLVIEIKVVAYKPL",3
3,"AmnE P126A (enzyme, Pseudomonas sp. AP-3, UniProt Q9KWS2 1-142, looked up, 2-aminomuconate deaminase AmnE, Pseudomonas sp; AP-3, as m1 with P126A; The purification, including tag cleavage, is described once for the wild type and the mutants together; Hexamer by SEC; also called mutant AmnE P126A; source: E. coli BL21 (DE3) pLysS, purified (Ni-NTA, Resource Q, Superdex 75); not shown: His6, N-terminal, cleaved) MVSKADNSAKLVEGKAKPMGSFPHVKRAGDFLFVSGTSSRRPDNTFVGAEPDDTGRPRPNIELQTREVISNIRDILQSVGADLGDVVEVCSYLVNMNDFAAYNKVYAEFFDATGPARTTVAVHQLAHPQLVIEIKVVAYKPL",6
4,"AmnEΔ49–59 (enzyme, Pseudomonas sp. AP-3, UniProt Q9KWS2 1-142, looked up, 2-aminomuconate deaminase AmnE, Pseudomonas sp; AP-3, as m1 with residues Ala49-Pro59 of loop Lp2 deleted; The purification, including tag cleavage, is described once for the wild type and the mutants together; Trimer by SEC; also called AmnEΔLp2 (residues Ala49–Pro59); truncated mutant AmnEΔ49–59; source: E. coli BL21 (DE3) pLysS, purified (Ni-NTA, Resource Q, Superdex 75); not shown: His6, …) MVSKADNSAKLVEGKAKPMGSFPHVKRAGDFLFVSGTSSRRPDNTFVGNIELQTREVISNIRDILQSVGADLGDVVEVCSYLVNMNDFAAYNKVYAEFFDATGPARTTVAVHQLPHPQLVIEIKVVAYKPL",3

# Source: publication PMC6742747, “A Unique Homo-Hexameric Structure of 2-Aminomuconate Deaminase in the Bacterium Pseudomonas species AP–3” (Frontiers in Microbiology, 2019)
